From article PMC8873925

Key:
Assay in all cases: ITC
CSTF2 RRM D90I = biological target: T1, CSTF2 RRM D90I (Homo sapiens, UniProt P33240 1-107, D90I)
T1 sequence: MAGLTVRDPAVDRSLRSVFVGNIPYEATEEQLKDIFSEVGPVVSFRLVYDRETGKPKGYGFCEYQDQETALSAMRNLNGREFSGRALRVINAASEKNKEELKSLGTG

CSTF2 RRM E26A = biological target: T2, CSTF2 RRM E26A (Homo sapiens, UniProt P33240 1-107, E26A)
T2 sequence: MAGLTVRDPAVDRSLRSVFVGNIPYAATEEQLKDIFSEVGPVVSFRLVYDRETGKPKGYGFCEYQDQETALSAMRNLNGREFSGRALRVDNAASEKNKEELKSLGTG

CSTF2 RRM D50A = biological target: T3, CSTF2 RRM D50A (Homo sapiens, UniProt P33240 1-107, D50A)
T3 sequence: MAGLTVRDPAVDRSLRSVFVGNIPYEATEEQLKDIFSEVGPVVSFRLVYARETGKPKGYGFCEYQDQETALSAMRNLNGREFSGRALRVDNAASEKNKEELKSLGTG

CSTF2 RRM K98E = biological target: T4, CSTF2 RRM K98E (Homo sapiens, UniProt P33240 1-107, K98E)
T4 sequence: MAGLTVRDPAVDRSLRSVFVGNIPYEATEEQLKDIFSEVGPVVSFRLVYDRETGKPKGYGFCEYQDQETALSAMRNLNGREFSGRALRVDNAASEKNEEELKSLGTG

CSTF2 RRM F45A = biological target: T5, CSTF2 RRM F45A (Homo sapiens, UniProt P33240 1-107, F45A)
T5 sequence: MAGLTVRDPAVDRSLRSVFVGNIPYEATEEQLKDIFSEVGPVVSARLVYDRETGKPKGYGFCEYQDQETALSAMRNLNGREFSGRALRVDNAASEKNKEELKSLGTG

[1] = biological target: T6, CSTF2 (CstF-64) RRM wild-type (Homo sapiens, UniProt P33240 1-107)
T6 sequence: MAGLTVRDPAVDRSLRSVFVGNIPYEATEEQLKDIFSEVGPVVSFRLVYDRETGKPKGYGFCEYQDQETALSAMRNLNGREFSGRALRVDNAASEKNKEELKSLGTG

CSTF2 RRM D90K = biological target: T7, CSTF2 RRM D90K (Homo sapiens, UniProt P33240 1-107, D90K)
T7 sequence: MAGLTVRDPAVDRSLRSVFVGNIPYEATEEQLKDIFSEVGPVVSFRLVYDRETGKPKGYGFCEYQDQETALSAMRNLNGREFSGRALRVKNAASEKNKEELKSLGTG

CSTF2 RRM A93E = biological target: T8, CSTF2 RRM A93E (Homo sapiens, UniProt P33240 1-107, A93E)
T8 sequence: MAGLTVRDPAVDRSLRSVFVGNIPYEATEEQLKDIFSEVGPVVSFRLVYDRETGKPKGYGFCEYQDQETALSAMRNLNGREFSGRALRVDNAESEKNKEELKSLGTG

CSTF2 RRM K96E = biological target: T9, CSTF2 RRM K96E (Homo sapiens, UniProt P33240 1-107, K96E)
T9 sequence: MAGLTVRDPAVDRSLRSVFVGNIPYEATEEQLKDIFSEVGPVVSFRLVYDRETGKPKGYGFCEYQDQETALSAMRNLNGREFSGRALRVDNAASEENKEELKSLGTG

Work on AUUUUAUGUUUCAGGU (ssRNA) [SVL RNA] yielded a Kd (CSTF2 RRM D90I) of 1260 ± 330 nM, a Kd (CSTF2 RRM E26A) of 520 ± 10 nM and a Kd (CSTF2 RRM D50A) of 698 ± 60 nM. The Kd (CSTF2 RRM K98E) was 8700 ± 110 nM, the Kd (CSTF2 RRM F45A) was 1010 ± 50 nM and the Kd [1] was 1520 ± 170 nM. The Kd (CSTF2 RRM D90K) was 608 ± 10 nM, the Kd (CSTF2 RRM A93E) was 3880 ± 770 nM and the Kd (CSTF2 RRM K96E) was 38700 ± 4200 nM.
